Data from PMC3916286, “NSUN4 Is a Dual Function Mitochondrial Protein Required for Both Methylation of 12S rRNA and Coordination of Mitoribosomal Assembly”.

Target: NSUN4 (Homo sapiens, UniProt Q96CB9 26-384)
Experiment: EMSA; NSUN4 without MTERF4; protein 0-2.56 uM; EMSA with 40 ng RNA and 0-2.56 uM protein, essentially as in cited ref 15; buffer, salt, pH and temperature not given
Settings: protein: recombinant; single strand folded, closed by added GGG/CCC

Sequence of NSUN4 (Q96CB9 26-384): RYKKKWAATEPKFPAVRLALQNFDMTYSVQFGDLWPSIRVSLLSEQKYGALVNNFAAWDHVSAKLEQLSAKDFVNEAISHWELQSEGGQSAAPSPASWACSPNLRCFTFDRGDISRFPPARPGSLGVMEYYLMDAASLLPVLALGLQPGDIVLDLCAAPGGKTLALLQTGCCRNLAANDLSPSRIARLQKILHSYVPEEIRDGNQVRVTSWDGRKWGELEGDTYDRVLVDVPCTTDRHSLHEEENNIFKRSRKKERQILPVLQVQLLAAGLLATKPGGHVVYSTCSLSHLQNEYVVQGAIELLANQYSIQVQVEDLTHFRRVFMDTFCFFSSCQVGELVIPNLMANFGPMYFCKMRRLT

B1: ds12S:878-949 (structured_RNA)
RNA: GGGGUUGAACAGGGCCCUGAAGCGCGUACACACCGCCCGUCACCCUCCUCAAGUAUACUUCAAAGGACAUUUAACCCC
  binding result: binds
